Test [1] has as its target T1, chimeric bovine EC1-Fcγ2R/human EC2-CD89 (bovine/human chimera).
T1 chain: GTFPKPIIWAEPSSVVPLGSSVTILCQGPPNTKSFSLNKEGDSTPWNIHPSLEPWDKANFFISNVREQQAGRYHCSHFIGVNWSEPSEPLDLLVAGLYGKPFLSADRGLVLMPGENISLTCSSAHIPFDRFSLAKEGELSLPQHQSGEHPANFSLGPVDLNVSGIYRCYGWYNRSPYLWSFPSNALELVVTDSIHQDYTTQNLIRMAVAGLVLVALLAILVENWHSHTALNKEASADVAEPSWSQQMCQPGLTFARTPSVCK
Put plainly: FACS, transiently transfected HEK293F. Background: Flow cytometry measures light scatter and fluorescence of single cells or particles in a stream.

For test [2], the target named is T2, membrane-bound full-length human CD89 (human, UniProt P24071 22-287).
T2 construct: on stably or transiently transfected HEK293F cells; also called FcalphaRI; huCD89
The test can be described thus: FACS, HEK293F-huCD89, half-maximum binding.
Procedure: Then, 10 μL/tube (ie, 0.1×10⁶ cells) of these cells were incubated with or without 100 μL titrated (in PBS/BSA/NaN₃) purified chimeric mouse/human anti-human CD89 antibody/tube for 30 minutes at 4° C. […] After extensive washing in PBS/BSA/NaN₃, cells were subsequently incubated with 1:200 diluted PE-conjugated goat anti-human IgG Fey-specific antibodies (Jackson ImmunoResearch) for 30 minutes at 4° C. After extensive washing in PBS/BSA/NaN₃, cells were fixed in 2% formaldehyde in PBS/BSA/NaN₃ for 30 minutes at 4° C.

The target in test [3] is T3, recombinant C-terminal polyhistidine-tagged human (extracellular) CD89 (human, UniProt P24071 22-227).
T3 construct: extracellular domain; bought (Sino Biological); also called rhuCD89
Put plainly: ELISA, coated rhuCD89, half-maximum binding. (In general: In an ELISA, binding on a coated surface is turned into a signal by an enzyme label.)
Procedure: After extensive washing with PBS/0.05% Tween 20, plates were blocked with PBS/0.05% Tween 20/1% BSA (Roche) for 1 hour at RT. Subsequently, plates were incubated with 50 μL titrated (in block buffer) purified mouse anti-human CD89 antibody/well for 1 hour at RT. […] After extensive washing in PBS/0.05% Tween 20, binding of antibodies on rhuCD89 was determined with 1:5,000 diluted horseradish peroxidase (HRP)-conjugated goat anti-mouse IgG Fey-specific antibodies (Jackson ImmunoResearch) for 1 hour at RT, followed by a ready-to-use solution of TMB substrate (Invitrogen) for colorimetric detection.
After extensive washing with PBS/0.05% Tween 20, plates were blocked with PBS/0.05% Tween 20/1% BSA (Roche) for 1 hour at RT. Subsequently, plates were incubated with and without 50 μL titrated (in block buffer) purified chimeric mouse/human anti-human CD89 antibody/well for 1 hour at RT. After extensive washing in PBS/0.05% Tween 20, binding of antibodies on rhuCD89 was determined with 1:5,000 diluted horseradish peroxidase (HRP)-conjugated goat anti-human IgG Fey-specific antibodies (Jackson ImmunoResearch) for 1 hour at RT, followed by a ready-to-use solution of TMB substrate (Invitrogen) for colorimetric detection.

For test [4], the target named is T4, membrane full-length cynomolgus monkey CD89 (cynomolgus monkey).
T4 construct: also called cynoCD89; cynomolgus EC1-CD89
T4 chain: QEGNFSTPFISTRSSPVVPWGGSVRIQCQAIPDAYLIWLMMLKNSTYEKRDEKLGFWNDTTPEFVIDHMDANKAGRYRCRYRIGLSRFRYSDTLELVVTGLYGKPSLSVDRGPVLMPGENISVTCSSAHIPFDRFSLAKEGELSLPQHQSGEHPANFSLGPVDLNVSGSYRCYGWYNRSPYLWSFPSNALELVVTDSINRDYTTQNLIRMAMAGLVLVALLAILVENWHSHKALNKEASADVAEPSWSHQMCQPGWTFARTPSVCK
The test can be described thus: FACS, transiently transfected HEK293F; - = no binding.
Procedure: (§1) After 48 hours, the binding of CD89/IgA blocking mouse anti-human CD89 antibodies to aforementioned chimeric human CD89/cynomolgus monkey CD89 constructs on transfected cells was analyzed by FACS analysis. To this end, transient transfected HEK293F cells were put at 10×10⁶ cells/mL in ice-chilled phosphate-buffered saline containing 0.1% BSA (Sigma)/0.05% NaN₃ (PBS/BSA/NaN₃) supplemented with 50 μg/mL human IgGs (blocking Fcγ receptors; Sigma) for 10 minutes at 4° C. Then, 10 μL/tube (ie, 0.1×10⁶ cells) of these cells were incubated with or without 100 μL purified mouse anti-human CD89 antibody at 10 μg/mL (in PBS/BSA/NaN₃) for 30 minutes at 4° C. […] After extensive washing in PBS/BSA/NaN₃, cells were subsequently incubated with 1:200 diluted PE-conjugated goat anti-mouse IgG Fey-specific antibodies (Jackson ImmunoResearch) for 30 minutes at 4° C. After extensive washing in PBS/BSA/NaN₃, cells were fixed in 2% formaldehyde in PBS/BSA/NaN₃ for 30 minutes at 4° C.

Test [5] addresses T2, membrane-bound full-length human CD89. The test can be described thus: FACS, HEK293F-huCD89, unlabeled Ab 10 ug/mL first; competitor A59-PE.
Procedure: (§2) Then, 10 μL/tube (ie, 0.1×10⁶ cells) of these cells were incubated with or without 100 μL purified mouse anti-human CD89 antibody at 10 μg/mL (in PBS/BSA/NaN₃) for 30 minutes at 4° C. […] After extensive washing in PBS/BSA/NaN₃, cells were fixed in 2% formaldehyde in PBS/BSA/NaN₃ for 30 minutes at 4° C.
Test [6] has the same target. The test can be described thus: FACS, HEK293F-huCD89, unlabeled Ab 10 ug/mL first; competitor MIP8a-PE.
Procedure: as §2
The target of test [7] is T5, chimeric human/cynomolgus monkey CD89-I (human/cynomolgus monkey chimera, UniProt P24071 22-287).
T5 construct: also called ΔGln22-Lys46 human EC1-CD89; I (22-46)
T5 chain: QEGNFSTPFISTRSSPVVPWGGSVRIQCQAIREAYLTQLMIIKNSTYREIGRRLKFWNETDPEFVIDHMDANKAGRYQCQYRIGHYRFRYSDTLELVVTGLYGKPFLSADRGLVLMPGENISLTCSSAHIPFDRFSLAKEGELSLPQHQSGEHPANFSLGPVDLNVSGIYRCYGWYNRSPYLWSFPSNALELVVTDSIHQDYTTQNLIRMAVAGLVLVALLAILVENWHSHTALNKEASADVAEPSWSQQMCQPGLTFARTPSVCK
The test can be described thus: FACS, transiently transfected HEK293F, 10 ug/mL; ++ strong, + intermediate, -/+ weak.
Procedure: as §1

For test [8], the target named is T6, chimeric human/cynomolgus monkey CD89-IV (human/cynomolgus monkey chimera, UniProt P24071 22-287).
T6 construct: also called ΔArg97-Gly121 human EC1-CD89
T6 chain: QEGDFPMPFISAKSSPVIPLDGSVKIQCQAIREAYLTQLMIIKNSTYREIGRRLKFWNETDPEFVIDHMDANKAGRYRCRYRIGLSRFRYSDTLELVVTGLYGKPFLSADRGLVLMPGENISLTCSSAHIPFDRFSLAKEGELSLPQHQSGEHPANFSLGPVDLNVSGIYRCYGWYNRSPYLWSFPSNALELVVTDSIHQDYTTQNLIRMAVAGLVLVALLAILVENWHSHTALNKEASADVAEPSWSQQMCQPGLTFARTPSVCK
The test is described as above.
Procedure: as §1

For test [9], the target named is T2, membrane-bound full-length human CD89. Put plainly: FACS, HEK293F-huCD89, 4C +NaN3, Ab 10 ug/mL then IgA; competitor non-aggr serum IgA.
Procedure: Then, 10 μL/tube (ie, 0.1×10⁶ cells) of these cells were incubated with or without 50 μL purified mouse anti-human CD89 antibody at 20 μg/mL (in PBS/BSA/NaN₃) for 30 minutes at 4° C. […] After extensive washing in PBS/BSA/NaN₃, 1:200 diluted PE-conjugated streptavidin (Jackson ImmunoResearch) was added, and incubated for 30 minutes at 4° C. After extensive washing in PBS/BSA/NaN₃, cells were fixed in 2% formaldehyde in PBS/BSA/NaN₃ for 30 minutes at 4° C.
Test [10] has the same target. Put plainly: FACS, HEK293F-huCD89, 4C +NaN3, Ab 10 ug/mL then IgA; competitor heat-aggr serum IgA.
Procedure: To mimic human IgA immune complexes, human (serum-derived) IgA (Bethyl Laboratories) was heated at 63° C. for 30 minutes, and cooled down to RT followed by centrifugation at 4° C. 12000×g for 2 minutes to remove any insoluble protein precipitation.
Then, 10 μL/tube (ie, 0.1×10⁶ cells) of these cells were incubated with or without 50 μL purified mouse anti-human CD89 antibody at 20 μg/mL (in PBS/BSA/NaN₃) for 30 minutes at 4° C.
Test [11] has the same target. The test can be described thus: FACS, HEK293F-huCD89, 24 h 37C no NaN3, IgA then Ab 10 ug/mL; pre-bound non-aggr serum IgA.
Procedure: (§3) After extensive washing in PBS/BSA/NaN₃, 1:200 diluted PE-conjugated streptavidin (Jackson ImmunoResearch) was added, and incubated for 30 minutes at 4° C. After extensive washing in PBS/BSA/NaN₃, cells were fixed in 2% formaldehyde in PBS/BSA/NaN₃ for 30 minutes at 4° C.
Test [12] has the same target. Put plainly: FACS, HEK293F-huCD89, 24 h 37C no NaN3, Ab 10 ug/mL then IgA; competitor non-aggr serum IgA.
Procedure: as §3
The target is the same in test [13]. Put plainly: FACS, HEK293F-huCD89, 24 h 37C no NaN3, IgA then Ab 10 ug/mL; pre-bound heat-aggr serum IgA.
Procedure: as §3
Test [14] has the same target. Put plainly: FACS, HEK293F-huCD89, 24 h 37C no NaN3, Ab 10 ug/mL then IgA; competitor heat-aggr serum IgA.
Procedure: as §3

From US20210388084A1 (JJP BIOLOGICS SP Z O O, published 2021) come the findings set out here.

As a reminder, the EC50 is the concentration needed to bring the measured effect to its halfway point.

B1: mouse anti-human CD89-specific antibody 8F3 (antibody, mouse IgG1, V domains shown)
VH: EVQLVESGGGLVKPGGSLKLSCAASGFTFSNYGMSWVRQTPDKRLEWVATMHSGGTYTYYPDNVKGRFTISRDNAKNNLYLQMSSLRSEDTAMYYCARETGLYDGLFDFWGQGTTLTVSS
VL: DVQITQSPSYLAASPGETITINCRASKTISKYLAWYQEKPGKTNMLLIYSGSTLQSGVPSRFSGSGSGTDFTLTISSLEPEDLAMYYCQQHDEYPWTFGGGTKLEIK
Consider B1, for which the binding result in test [1] is “no binding (tested: 10 µg/mL)”; in [4], “no binding (tested: 10 µg/mL)”; in [7] it was “binds”; in [8], “binds”. Also, the EC50 came out at 0.714 µg/mL in [2] and 0.052 µg/mL in [3]. In addition, in test [5], the “% blocking of A59-PE binding” value was below 25%. Moreover, the “% blocking of MIP8a-PE binding” value in test [6] was below 25%. The “percent IgA binding” value in test [9] and in test [10] was 0 to 25% throughout. Further, the “percent IgA binding (remaining)” value in test [11], in test [12], in test [13] and in [14] was 0 to 25% throughout.

B2: mouse anti-human CD89-specific antibody 10E7 (antibody, mouse IgG1, V domains shown)
VH: EVQLVESGGGLVQPGGSLKLSCAASGLTFSSYGMSWVRQTPDKRLELVATINGNGDITYYPDSVKGRFTISRDNAKNTLYLQMSSLKSEDTAMYYCARDYDYDYAMDYWGQGTSVTVSS
VL: DIQMTQSTSSLSASLGDSVTISCRASQDIINYLNWYQQKPDGTVKLLIYYTSRLHSGVPSRFSGSGSGTEYSLTVSNLEKEDIATYFCQQGKTLPYTFGGGTKLEIK
On to B2, for which the binding result in [1] was “no binding (tested: 10 µg/mL)”; in test [4], “no binding (tested: 10 µg/mL)”; in [7] it was “binds”; in test [8] it was “binds”. The EC50 in test [2] is 0.637 µg/mL; in [3], 0.02 µg/mL. Moreover, the “% blocking of A59-PE binding” value in [5] is below 25%. Besides, the “% blocking of MIP8a-PE binding” value in [6] is below 25%. In addition, the “percent IgA binding” value in test [9] and in test [10] was 0 to 25% in each case. Also, the “percent IgA binding (remaining)” value in [11], in test [12], in [13] and in [14] was 0 to 25% in each case.

B3: mouse anti-human CD89-specific antibody 20B4 (antibody, mouse IgG1, V domains shown)
VH: QVQLKESGPGLVAPSQSLSITCTVSGFSLTSYGVHWVRQPPGKGLEWLGIIWAGGSTSYNSALMSRLSISKDNSKSQVFLKMNSLQTDDTAMYYCARDHYDLFAYWGQGTLVTVSA
VL: DILMTQSPSSMSVSLGDTVSITCHASQDISRNIGWLQQKPGKSFKGLIYHGTNLEDGVPSRFSGSGSGADYSLTISSLESEDFADYYCVQYAQFPRTFGGGTKLEIK
With B3, the binding result is on record as “no binding (tested: 10 µg/mL)” in [1], “no binding (tested: 10 µg/mL)” in test [4], “binds” in test [7] and “binds” in [8]. Further, the EC50 was determined as 0.26 µg/mL in [2] and 0.013 µg/mL in test [3]. Further, the “% blocking of MIP8a-PE binding” value in [6] was below 25%. The “percent IgA binding” value in [9] and in [10] was 0 to 25% each time. The “percent IgA binding (remaining)” value in [11] was in the range of 0 to 25%; in test [12], 0 to 25%; in [13], 26 to 50%; in test [14] it was 26 to 50%.
